Measured values taken from patent US20200223885A1.

Biological target: IgG1 (manufactured by Sigma-Aldrich)
Assay: SPR (Biacore T100), Fc-binding protein amine-coupled to CM5, IgG1 as analyte

B1: Fc-binding protein FcR9_F (FcR9 with Val192Phe) (receptor)
chain: KIEEAMGMRTEDLPKAEVILEPQWNRVLEKDSVTLKCRGAYSPEDNSTQWFHNESLISSQASSYLIDAATVDDSGEYRCQTSLSTLSDPVQLEVHIGWLLLQAPRWEFKEGDPIHLRCHSWKNTALHKVTYLQNGKGRKYFHHNSDFYIPKATLKDSGSYSCRGLFGSKNVSSETVNITITQGGHHHHHH
B1 was tested, and the Kd was 3.28 µM, the koff was 0.301 s⁻¹ and the kon was 90200 M⁻¹ s⁻¹.
